Neutralization of WT JCV: EC50 [pM] data for four molecules are collected here from US20220356228A1.

Sequences and labels used below:
B1: 6G5 (antibody, V domains shown)
VH: QVQLVQSGAEVKKPGASVKVSCKASGYTFTNYDIHWVRQAAGQGLEWMGWTNPNSGNSDYAQKFQGRVSMTRDTSMRTMYMELNSLRSEDTAVYFCARKIWVGTTIFDYWGQGTLVTVSS
VL: DIQMTQSPSSLSASVGDRVTIACRASQSIYRFLSWYQQKPGTAPKLLIFAVSSLQSGVPSRFSGSGSGTDFTLTISSLHPEDFAIYYCQQSDSPPLTFGGGTKVGIK
B2: 6H7 (antibody, V domains shown)
VH: QVQLVESGGGLVKPGGSLRLSCAGSGFTFSDHYMSWIRQAPGKGLEWVSYISTSGRTIFYVDSVKGRFTISRDNAKNSLYLQMNSLRAEDMAVYYCASDYYDNVGWNYWGQGALVIVSS
VL: DVVLTQSPLSLPVTLGQPASISCRSSQSLVYSDGNTYLNWFQQRPGQSPRRLIYKVSDRDFGVPDRFSGSGSGTDFTLKISRVEAEDVGIYYCMQGTHWPRTFGQGTKVEIK
B3: 5G5 (antibody, V domains shown)
VH: LVQLVESGGGLVKPGGSLRLSCTASGITFSDLYMSWIRQSPGKGLEWISYISTSGRTIYYTDSVKGRFTISRDNAKNSLFLQMNRLRADDTAVYYCAGDYYDNSGWDYWGRGTLVTVSS
VL: NVVMTQSPLSLPVALGQPASISCRSGQSLVYSDGNTYLNWFQQRPGQSPRRLIYKVSDRDSGVPDRFSGSGSGTDFTLKISRVEAEDVGIYYCMQGTHWPRTFGQGTKVEIK
B4: 8C3 (antibody, V domains shown)
VH: QVQLVESGGGLVKPGGSLRLSCAASGFTFSDHYMSWIRQAPGKGLEWVSYISTSGRTIHYADSVKGRFTISRDNAKNSLYLQMNSLRAEDMAVYYCASDYYDNVGWDYWGQGTLVTVSS
VL: DVVMTQSPLSLPVTLGQPASISCRSSQSLLYSDGNTYLNWFQQRPGQSPRRLIYKVSDRDSGVPDRFSGSGSGTDFTLKISRVEADDVGVYYCMQGAHWPRTFGQGTKVEIK

This test deals with JCV major capsid protein VP1, wild type (John Cunningham virus (JCV)) (UniProt P03089). The experiment in a line: cell-based or functional assay.
Chain of JCV major capsid protein VP1, wild type (John Cunningham virus (JCV)) (P03089 whole entry): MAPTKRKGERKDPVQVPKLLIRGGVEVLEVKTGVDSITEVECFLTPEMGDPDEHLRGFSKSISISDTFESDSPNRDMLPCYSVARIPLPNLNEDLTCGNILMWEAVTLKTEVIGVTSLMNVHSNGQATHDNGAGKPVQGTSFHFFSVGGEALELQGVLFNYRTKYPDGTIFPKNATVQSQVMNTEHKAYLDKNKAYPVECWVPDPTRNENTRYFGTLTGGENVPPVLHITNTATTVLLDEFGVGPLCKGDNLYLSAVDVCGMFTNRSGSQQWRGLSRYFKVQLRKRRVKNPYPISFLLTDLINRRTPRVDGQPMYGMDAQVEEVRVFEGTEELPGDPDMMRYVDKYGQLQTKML
For the molecule B1, the Neutralization of WT JCV: EC50 [pM] was 3.1 pM.
On to B2, for which the Neutralization of WT JCV: EC50 [pM] was 0.5 pM.
Molecule B3 gave a Neutralization of WT JCV: EC50 [pM] of 0.4 pM.
The molecule B4 displayed a Neutralization of WT JCV: EC50 [pM] of 14 pM.
